Assay results reported in IntAct's records for PubMed 35115020.

B1: Palmitoyltransferase ZDHHC5 (Homo sapiens), Q9C0B5 (parent)
chain: MPAESGKRFKPSKYVPVSAAAIFLVGATTLFFAFTCPGLSLYVSPAVPIYNAIMFLFVLANFSMATFMDPGIFPRAEEDEDKEDDFRAPLYKTVEIKGIQVRMKWCATCRFYRPPRCSHCSVCDNCVEEFDHHCPWVNNCIGRRNYRYFFLFLLSLTAHIMGVFGFGLLYVLYHIEELSGVRTAVTMAVMCVAGLFFIPVAGLTGFHVVLVARGRTTNEQVTGKFRGGVNPFTNGCCNNVSRVLCSSPAPRYLGRPKKEKTIVIRPPFLRPEVSDGQITVKIMDNGIQGELRRTKSKGSLEITESQSADAEPPPPPKPDLSRYTGLRTHLGLATNEDSSLLAKDSPPTPTMYKYRPGYSSSSTSAAMPHSSSAKLSRGDSLKEPTSIAESSRHPSYRSEPSLEPESFRSPTFGKSFHFDPLSSGSRSSSLKSAQGTGFELGQLQSIRSEGTTSTSYKSLANQTRNGSLSYDSLLTPSDSPDFESVQAGPEPDPPLGYTSPFLSARLAQQREAERHPRLVPTGPTHREPSPVRYDNLSRHIVASLQEREKLLRQSPPLPGREEEPGLGDSGIQSTPGSGHAPRTSSSSDDSKRSPLGKTPLGRPAVPRFGKPDGLRGRGVGSPEPGPTAPYLGRSMSYSSQKAQPGVSETEEVALQPLLTPKDEVQLKTTYSKSNGQPKSLGSASPGPGQPPLSSPTRGGVKKVSGVGGTTYEISV

Variants of: B1
Details: with spike_sars2 S

| Variant | effect of a mutation on the interaction |
| --- | --- |
| C134S | with no effect |
